The record followed here is article PMC5574023.

In this test the target is platelet receptor GPIIbIIIa (αIIbβ3) on human platelets, P08514;P05106. Put plainly: platelet adhesion to immobilized protein (phosphatase assay). Particulars: read off a plot.

Regarding “recombinant PadA-F2 region fragment (from UniProt A8AZP4) G486A; D487A”, the response (Absorbance (405 nm)) stood at 0.27 (parent: est. 0.48) and 0.87 (parent: est. 0.88).
With “recombinant PadA-F2 region fragment (from UniProt A8AZP4) N214A; G215A; R216A”, the response (Absorbance (405 nm)) is 0.28 (parent: est. 0.48) and 0.72 (parent: est. 0.88).
In the case of “recombinant PadA-F2 region fragment (from UniProt A8AZP4) N214A; G215A; R216A; R416A; G417A; T418A; G486A; D487A”, the response (Absorbance (405 nm)) is, setting by setting: (TRAP-activated gel-filtered platelets, 2 × 10^7 per well, 10 μg protein per well, 37°C, 45 min, static, parent: est. 0.88) 0.2; (non-activated gel-filtered platelets, 2 × 10^7 per well, 10 μg protein per well, 37°C, 45 min, static, parent: est. 0.48) 0.49.
For the substance “recombinant PadA-F2 region fragment (from UniProt A8AZP4) R416A; G417A; T418A”, the response (Absorbance (405 nm)) reads like this: (parent: est. 0.48) 0.21; (parent: est. 0.88) 0.8.
“recombinant PadA-F2 region fragment (from UniProt A8AZP4) R416A; G417A; T418A; G486A; D487A”: the response (Absorbance (405 nm)) was 0.71 (parent: est. 0.48) and 0.44 (parent: est. 0.88).
